A short description of the series: soluble on expression in E. coli; label from the status in PepcDB or PDB records.
For “MSLSETLLEKNWKFSKGDFPEAAQTDYNDTKWESVVIPHDWAIFGPFDMNNDLQNVAVTQNFEKKASLKTGRTGGLPYVGTGWYRTSFDVPADKEVTLLFDGAMSEARVYVNGQEACFWPFGYNSFHCNVTPFLNKDGKNNTLAVRLENRPQSSRWYPGAGLYRNVHLIVTEKVHIPVWGTQITTPHVSDEFAAVRLQTKIENAGEKTEIRIETEILSPDGKVVTRKENKGRINHGQPFEQNFIVNAPQLWSPESPALYKAVSKVYADNQLVDTYSTRFGIRSIEYIADKGFYLNGKHRKFQGVCNHHDLGPLGAAINVAALRHQLTLLKDMGCDAIRTSHNMPAPELVELCDEMGFMMMIEPFDEWDIAKCENGYHRYFNEWAERDMVNMLHNYRNNPCVVMWSIGNEVPTQCSPVGYKVAKFLQDICHREDPTRPVTCGMDQVTCVLANGFAAMIDIPGLNYRANRYQEAYDKLPQNLILGSETASTVSSRGVYKFPVKDKKSAQYDDHQCSSYDVEACSWSNIPDEDFALADDHHWTIGQFVWTGFDYLGEPSPYDTDAWPNHSSMFGIIDLASLPKDRYYLYRSIWNKEAETLHILPHWTWPGREGEVTPVFVYTNYPAAELFINGKSYGKQSKNNSSLKSRYRLMWMDAIYEPGEVKVVAYDKDGKAVAEKSVRTASKPHHIELVSNRNELTADGKDLAYVTVKVVDKDGNLCPADSRLINFSVKGAGKYRAGANGDPTSLDLFHLPKMHAFNGMLTAIVQTNETAGEIILTAKAGGVKAGSIRLLTKEGHHHHHH”, the “soluble on expression in E. coli” value is “soluble”. The entry for “MGSDKIHHHHHHMGTFFVDFYNEYPDTSYIKIPTNPLDRVIGQDDAVKIAMVAAKQRRHLLLVGPPGVGKSMIAQAMSFYIDRPTEEIRVVHNPQYPERPFVEIKTREEVMAEREEETSTSGIIIDPKDAPTSVAERLGYRCSKCGFYSSPSDAVCPNCNSPKIQMGTQGPFGDVFNVIGAAFGVQNNLDKVTLTRRNGDHDEIIVYERYNDKIRVLDEKTLERRRRLEKKSPSKTIVPIDRNPFVLATGASETELLGDVRHDPYGGHPQLGTLPYERVIAGAVHEAHQGVLFIDEITHLGNLQRYILTAMQEKTFPITGRNPQSAGASVRVDKVPADFILVAACNINDLPYILSPLRSRIVGNGYEILMKTTMKDTDENRMKYLQFISQEITMDGKIPHMTMEAAELIIEEGKKRARIIDKKNNELTLRLRELGGLIRAAGDIAVFKGNKLIEKEDVEEAIKLYVPVEEKITKEYGSMAAAYSSENTTSQKDFYNYNLDDRSYE” is “not soluble”; for “MGNIIRIGMADLKASHHPAILTTLGLGSCVGIALYDRTTKIVGLAHAMLPDSSQVKNKTNAAKFVDTAIELLVKEMLSLGASKKRIVAKLAGGAQMFTFTQGAELMRIGQRNVAAAKSKLESLDIPVVSEDTGGNYGRTVELDSESGMLLIRTIGYGTKQI” it is “not soluble”. As to “HHHHHHDEKRRPKRREIPLKVLVKAVLFACMLMRKTMASRVRVTILFATETGKSEALAWDLGALFSCAFNPKVVCMDKYRLSCLEEERLLLVVTSTFGNGDCPGNGEKLKKSLFMLKELNNKFRYAVFGLGSSMYPRFCAFAHDIDQKLSHLGASQLTPMGEGDELSGQEDAFRSWAVQTFKAACETFDVRGKQHIQIPKLYTSNVTWDPHHYRLVQDS”, the “soluble on expression in E. coli” value is listed as “soluble”. The entry for “MGSDKIHHHHHHMKVQYECLTCMANQCQRIVEMATQDMDIRRRAMILAAKLLAKEYNENAIPAIAGSLIFLELYKFLGNDDPFIEYKLKSEEMARKVADIIKRKLKLDFELAVKLAIIGNVIDFSVGFSPEDLEEEVEKMLKDKLYIDDSKELFEEVKRAENILYITDNVGEHYFDAILIEKIREISNAEVYIAGKEGPIINDATVEDLKRAGLEKLGKVISTGTRIVGVPLKLVSREFMEAFNKADVIIAKGQGNFETLSEINDSRIFFLLKAKCPAVARELKVPKGALVCMRNKFKL” is “soluble”; for “MGSDKIHHHHHHMPTNVTAEYLAAEEEYRNAKTIPEKIRALEKMYALVPKHKGTEKLRLQIKRKLAELRKELEKQRQQRKGGGYSLAVKKEGAAQIVLVGLPNVGKSELLKALTGVDVESADYPFTTTEPVPAMLNYKDVQIQLVEVPGLIEGAALGKGMGPQLLAVVRNADAIAIVVDLSEDPVRQMNILLQEFERAGIKVNKKKPKVEIRKTPSGGIVINGIENIKGDIDEVMKMLREEKIHSAEITVMEPVTLEEFADALDDSLVWKKAIIIANKGDAPGSRANYEKLVKAFGERFKIIPVSAKKRINLEAVKEAIYEIADIIRVFTKSPGEEPAYPPIALRKGATVQDVAERIHKDLVKNFKYARVWGKSVKFPGQRVGLDHVLEDGDIVEIHAR” it is “not soluble”. With “MSLSDTHIPLPERLRPRDLSEIIGQDHLLGEHAPLRQMIDQGHLPSIIFWGPPGVGKTTIALLLAQAVDRPFVSLSALNTGVKELREIIAESGDLLTPVVFIDEIHRFNKSQQDALLNAVEKGKITLIGATTENPSFEVNSALLSRCQVYTLNVLDSAAIQNLIDRAIDSDSFLKQRHIHIEEYEALIQFAAGDARKALNLIDLIASTFEPDQENIVTNAVTVKVAQQNIARYDKSGEQHYDIISAFIKSIRGSDPDAALYWMARMIKGGEDPVFIARRMLIAASEDIGNSNPNALLLAGECFRSVQAVGMPEARIILGQCAVYLATSPKSNSTYLAIDRALALAEKTANLPVPLHLRNAPTKLMKQQGYGADYLYPHHYPEHFVLQEYLPPELKGTKLYEFSRNKREVEGERLQQRRWQQDQEGHHHHHH” the entry was “soluble”. The entry for “MGSDKIHHHHHHEQTVKIGILSDMSGPYSDMGGPGSVAAAQLAIDECLAKECKGMKIELLSIDHQNKPDIGVQKAREWADVNKVNAIADLTNSAVALGVQKLTLDHDFVAMYSGPATTKLTNEDCSATGFHWMFDTYALAAGSAQAITKMGGKSWYFLTVDYAFGHSLEADSMAMVKQLGGTVAGSVRHPLNTADMSSFLLQAQSSKAQVVALANGAADTINAIKTAREFGIVQGGQQVVPLLIFLTDIRSLGLEIAQGLTFTEGFYWDQDDQARAFAARFQKAFKDRKPTMVQAGTYSSVLHYLHAVAAAKTTEAKAVSAKMREMPISDAVMRNAAIRPDGRVIHDMLLVKVKSPAESKGDWDFYTIQATIPAAEAFKPLANSACPTVKK” is “not soluble”; for “HMDIRPRLRIGQINLGGAEDATRELPSIARDLGLDIVLVQEQYSMVGFLAQCGAHPKAGVYIRNRVLPCAVLHHLSSTHITVVHIGGWDLYMVSAYFQYSDPIDPYLHRLGNILDRLRGARVVICADTNAHSPLWHSLPRHYVGRGQEVADRRAKMEDFIGARRLVVHNADGHLPTFSTANGESYVDVTLSTRGVRVSEWRVTNESSSDHRLIVFGVGGGTTGERDEDEEARSDLRPGEP” it is “soluble”; for “MSLRVIDGGVTAPKGFKANGYKEGKFGVAIIISEKDAVGAGTFTTNKVVAHPVVLSRELIKNRDKFRAIVANSGNANCFTKDGMEDAKEMQRLVAELFNINEDEVLVASTGVIGRKMDMNIIKDRINKVYNLIKEGNSSINAAKAIMTTDTKPKEIAVEFEVNGKTVRVGGIAKGAGMIAPNMLHATMLCFITTDIEIDKESLTNILQKVVDKTFNNISVDGDTSTNDTVFVLANGLSGVNYEECGEEFENALLYVCRELAKMIVKDGEGATKFMEVVVKGAKTEEDAVKASKAIVNSLLVKTAVFGGDPNWGRIVAAVGYSGADFNPEVVDVILSNYKDEVYLVKDGIPLADEGTEELKKAEEIMKSDEIKIVVDLKMGEFENVCYGCDLSYEYVRINAEYTTEGHHHHHH” it is “soluble”. For “MHIEEKTTQLQDQQQVSITIYNENLALVRDLRHVPLEKGINKLAWCDVSAQIRPETALLRTPEKTSSIRMVEQNFDFDLLTPEKLLEKYLGRSVNVIYVNPATGAETVEAAIVLSISGGVVLKFKDRIETGTPGRIAFPDVPGSLHDHPTLSLVLDGATPGKHELELSYLTSGLSWQADYVARLDANDGRLDLSGLVTLANHSGIAYPDAHLQLVSGEVNQVTPEPPQARKMMAMVADAAEYQAVREESLSEYHLYSLPVPTTLAENQSKQITLMSVTDIPVSQEFLLRGTNAYYFSRYSNLDDKLKPVVLIQFKNEGEGLGVPLPRGTIRVYQNDSRDNLQFLGEDHIDHTAKNEEVRVKLGKATDITAMRTQTDFQQLDTPSRRFTETATDITAMRTQTDFQQLDTPSRRFTETAHQIEIHNARQEAVTIRVQEPIPGDWMMISESQPHTKSSANLVEWLVKVPTNQKTILSYRVRIKHLEHHHHHH”, the “soluble on expression in E. coli” value is reported as “not soluble”. With “MGSDKIHHHHHHMFVWHEYENAAEAAQSLADAVADALQGALDEKGGAVLAVSGGRSPIAFFNALSQKDLDWKNVGITLADERIVPTNHADSNTGLVREYLLKNKAAAAVWIPMVEDGKTETELHPDAVVDYALKHYKQPDVLILGMGNDGHTASIFPKAPQFQTAIDGSAGVALVHTTPVTAPHERISMTLDAIAHTGHVFLAIQGEEKKAVFDQAAQGENREYPISLVLNHQGVNCHVFYAE” the entry was “not soluble”. The entry for “MKNTLLKLGVCVSLLGITPFVSTISSVQAERKVEHKVIKNETGTISISQLNKNVWVHTELGYFNGEAVPSNGLILNTSKGLVLVDSSWDDKLTKELIEMAEKKFKKSVTDVIITHAHADRIGGIKTLKERGIKAHSTTLTAELAKKNGYEEPLGDLQAITKLKFGNMKVETFYPGKGHTEDNIVVWLPQYNMLVGGCLVKSASAKDLGNITDAYVNEWSTSIENVLKRYENINFVVPGHGEVGDKGLLLHTLDLLK” is “not soluble”; for “MALRDSFNKIISYFDTDEVSEVEEPAVASVKRQQDAAQPASQQQKAQSHQYHQSASRPSQQQVQSGQNRRSGEENIHSLPTRRQSHNQQPAQEKTTIALKLPRKYEDAEEIVDLLIRNECVLIDFQYMLEAQARRCLDFIDGASKVLAGNLQKVGASMYLLTPINVIVDAEEMTLAANGQDVSFNYDMKRRLEHHHHHH” it is “not soluble”; for “MQNNSYGYAVSVRVGGKEHRHWERYDIDSDFLIPADSFDFVIGRLGPEAAIPDLSGESCEVVIDGQIVMTGIIGSQRHGKSKGSRELSLSGRDLAGFLVDCSAPQLNVKGMTVLDAAKKLAAPWPQIKAVVLKAENNPALGKIDIEPGETVWQALTHIANSVGLHPWLEPDGTLVVGGADYSSPPVATLCWSRTDSRCNIERMDIEWDTDNRFSEVTFLAQSHGRSGDSAKHDLKWVYKDPTMTLHRPKTVVVSDADNLAALQKQAKKQLADWRLEGFTLTITVGGHKTRDGVLWQPGLRVHVIDDEHGIDAVFFLMGRRFMLSRMDGTQTELRLKEDGIWTPDAYPKKAEAARKRKGKRKGVSHKGKKGGKKQAETAVFE” it is “soluble”. In the case of “MLKIFNTLTRQKEEFKPIHAGEVGMYVCGITVYDLCHIGHGRTFVAFDVVARYLRFLGYKLKYVRNITDIDDKIIKRANENGESFVAMVDRMIAEMHKDFDALNILRPDMEPRATHHIAEIIELTEQLIAKGHAYVADNGDVMFDVPTDPTYGVLSRQDLDQLQAGARVDVVDDKRNPMDFVLWKMSKEGEPSWPSPWGAGRPGWHIECSAMNCKQLGNHFDIHGGGSDLMFPHHENEIAQSTCAHDGQYVNYWMHSGMVMVDREKMSKSLGNFFTVRDVLKYYDAETVRYFLMSGHYRSQLNYSEENLKQARAALERLYTALRGTDKTVAPAGGEAFEARFIEAMDDDFNTPEAYSVLFDMAREVNRLKAEDMAAANAMASHLRKLSAVLGLLEQEPEAFLQSGAQADDSEVAEIEALIQQRLDARKAKDWAAADAARDRLNEMGIVLEDGPQGTTWRRK”, the “soluble on expression in E. coli” value is given as “soluble”. The entry for “MSDVENASLPPAIFIMGPTASGKTALAMTLREYLPVELISVDSALIYKDMDIGTAKPSADELARAPHRLIDILDPTESYSAADFRRDALREMADITAAGRIPLLVGGTMLYFKALLEGLSPLPPADAAVRQRIEEQAKEIGWEAMHRQLSEIDPTAAIRIHPNDPQRLSRALEVFFISGNTLTELTKTSGDALPYQVHQFAIAPAMRELLHQRIEQRFHQMLAAGFETEARALFARHDLHTDMPSIRCVGYRQMWSYLSGEIDYDEMVYRGVCATRQLAKRQMTWLRGWDDVCWLDSENPTEALDKVIQVVSALEHHHHHH” is “soluble”.

(Values after the DeepSol protein solubility set.)
